The record followed here is the supplement of paper PMC9112550, “Optimization of the antimicrobial peptide Bac7 by deep mutational scanning” (BMC Biology, 2022).

The series concerns Escherichia coli TOP10. Briefly: shrunken log2 fold change of peptide-encoding DNA abundance (4.5 h post-induction vs induction); higher = less antimicrobial activity (less host growth inhibition). As to conditions: time post-induction: 4.5 h; library: site-saturation at positions 5, 18, 19, 20.
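Also: peptides expressed intracellularly from a pBAD plasmid library in pooled LB shake-flask culture, induced with 0.3% L-arabinose, DNA abundance read by NGS, three biological replicates, DESeq2 with apeglm shrinkage.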

For RRIRLRPPRLPRPRPRPYTIPRP, the “shrunken log2 fold change” value was -0.048. For RRIRSRPPRLPRPRPRPFVLPRP, the “shrunken log2 fold change” value was -0.215. Regarding RRIRYRPPRLPRPRPRPIMFPRP, the “shrunken log2 fold change” value is -1.35. As for RRIRNRPPRLPRPRPRPIFPPRP, the “shrunken log2 fold change” value is -0.281. Consider RRIRTRPPRLPRPRPRPHHYPRP, for which the “shrunken log2 fold change” value is -0.46. For the sequence RRIRPRPPRLPRPRPRPPIYPRP, the “shrunken log2 fold change” value was 0.0772. Regarding RRIRTRPPRLPRPRPRPETDPRP, the “shrunken log2 fold change” value was -0.0144. As to RRIRKRPPRLPRPRPRPKWCPRP, the “shrunken log2 fold change” value worked out at 0.152. Turning to RRIRQRPPRLPRPRPRPVSGPRP, the “shrunken log2 fold change” value was determined as 0.179.

As for RRIRIRPPRLPRPRPRPVKMPRP, the “shrunken log2 fold change” value is -0.173.

For RRIRRRPPRLPRPRPRPFWMPRP, the “shrunken log2 fold change” value is 0.0323.

For the sequence RRIRIRPPRLPRPRPRPFWSPRP, the “shrunken log2 fold change” value was determined as 0.0627. Consider RRIRQRPPRLPRPRPRPGLTPRP, for which the “shrunken log2 fold change” value was -0.483. With RRIRERPPRLPRPRPRPGDGPRP, the “shrunken log2 fold change” value worked out at 0.389. For RRIRSRPPRLPRPRPRPPGKPRP, the “shrunken log2 fold change” value is -0.0498. As for RRIRQRPPRLPRPRPRPNGIPRP, the “shrunken log2 fold change” value was -0.0272. As to RRIRQRPPRLPRPRPRPNPLPRP, the “shrunken log2 fold change” value was -0.0379. Then RRIRNRPPRLPRPRPRPQRVPRP, with 0.399. As for RRIRCRPPRLPRPRPRPHPSPRP, the “shrunken log2 fold change” value was -0.00515. As to RRIRARPPRLPRPRPRPKYHPRP, the “shrunken log2 fold change” value is -0.103.

In the case of RRIRERPPRLPRPRPRPHTDPRP, the “shrunken log2 fold change” value is -0.546. In the case of RRIRNRPPRLPRPRPRPVSEPRP, the “shrunken log2 fold change” value is -0.253. Then RRIRGRPPRLPRPRPRPMETPRP, with 0.00487; and RRIRTRPPRLPRPRPRPFKRPRP, with 0.122. With RRIRQRPPRLPRPRPRPFRAPRP the figure was 0.0134; with RRIRDRPPRLPRPRPRPIHTPRP, -0.159; with RRIRNRPPRLPRPRPRPFAEPRP, -0.238.

With RRIRDRPPRLPRPRPRPQIDPRP, the “shrunken log2 fold change” value was -0.0493. Turning to RRIRRRPPRLPRPRPRPIDTPRP, the “shrunken log2 fold change” value was -0.307. With RRIRDRPPRLPRPRPRPNCEPRP the figure was 0.133. For RRIRPRPPRLPRPRPRPKQTPRP, the “shrunken log2 fold change” value stood at 0.327. Regarding RRIRTRPPRLPRPRPRPYARPRP, the “shrunken log2 fold change” value was -0.000715. Consider RRIRNRPPRLPRPRPRPNMRPRP, for which the “shrunken log2 fold change” value was determined as 0.23. On to RRIRWRPPRLPRPRPRPWMGPRP, for which the “shrunken log2 fold change” value is 0.0275.

On to RRIRLRPPRLPRPRPRPYEAPRP, for which the “shrunken log2 fold change” value is -1.12. RRIRSRPPRLPRPRPRPHNFPRP: the “shrunken log2 fold change” value was -0.49. Take RRIRIRPPRLPRPRPRPEATPRP: the “shrunken log2 fold change” value worked out at 0.511. For the sequence RRIRFRPPRLPRPRPRPGMYPRP, the “shrunken log2 fold change” value is -0.076. RRIRGRPPRLPRPRPRPENEPRP: the “shrunken log2 fold change” value turned out to be 0.686. For the sequence RRIRMRPPRLPRPRPRPTYVPRP, the “shrunken log2 fold change” value is -0.197. RRIRWRPPRLPRPRPRPSRFPRP: the “shrunken log2 fold change” value was -0.0148. With RRIRIRPPRLPRPRPRPNWYPRP the figure was -0.519. In the case of RRIRGRPPRLPRPRPRPGMVPRP, the “shrunken log2 fold change” value was found to be 1.46.

Consider RRIRGRPPRLPRPRPRPTMWPRP, for which the “shrunken log2 fold change” value was determined as 0.757. Take RRIRYRPPRLPRPRPRPDQFPRP: the “shrunken log2 fold change” value was -0.435. Take RRIRPRPPRLPRPRPRPNENPRP: the “shrunken log2 fold change” value is -0.348. For RRIRERPPRLPRPRPRPSGLPRP, the “shrunken log2 fold change” value is -0.195. For RRIRRRPPRLPRPRPRPKMSPRP, the “shrunken log2 fold change” value turned out to be 0.274. Regarding RRIRFRPPRLPRPRPRPVQDPRP, the “shrunken log2 fold change” value is -0.209. RRIRKRPPRLPRPRPRPWHHPRP: the “shrunken log2 fold change” value was -0.197. Take RRIRPRPPRLPRPRPRPWKFPRP: the “shrunken log2 fold change” value is -0.0127. Regarding RRIRFRPPRLPRPRPRPAEVPRP, the “shrunken log2 fold change” value was -0.127. For the sequence RRIRSRPPRLPRPRPRPTRFPRP, the “shrunken log2 fold change” value worked out at 0.2. Regarding RRIRVRPPRLPRPRPRPTGVPRP, the “shrunken log2 fold change” value was found to be 0.0149. Regarding RRIRVRPPRLPRPRPRPKTCPRP, the “shrunken log2 fold change” value came to 0.021. Regarding RRIRTRPPRLPRPRPRPKNNPRP, the “shrunken log2 fold change” value was -0.483. With RRIRSRPPRLPRPRPRPYWEPRP the figure was -0.0147; with RRIRDRPPRLPRPRPRPRLFPRP, 0.653. With RRIRARPPRLPRPRPRPYWGPRP the figure was -0.43; with RRIRYRPPRLPRPRPRPLPEPRP, -0.323; with RRIRQRPPRLPRPRPRPTMNPRP, -0.298. With RRIRVRPPRLPRPRPRPYEKPRP, the “shrunken log2 fold change” value was -0.293. For the sequence RRIRHRPPRLPRPRPRPRVKPRP, the “shrunken log2 fold change” value is -0.00109. Regarding RRIRYRPPRLPRPRPRPGVWPRP, the “shrunken log2 fold change” value stood at 0.171. As for RRIRERPPRLPRPRPRPCMMPRP, the “shrunken log2 fold change” value was -0.058. Take RRIRNRPPRLPRPRPRPNRLPRP: the “shrunken log2 fold change” value was found to be 0.0192. Consider RRIRLRPPRLPRPRPRPYDNPRP, for which the “shrunken log2 fold change” value is -1.57. RRIRFRPPRLPRPRPRPWTQPRP: the “shrunken log2 fold change” value is -0.959. With RRIRERPPRLPRPRPRPQPDPRP, the “shrunken log2 fold change” value was -0.258. Regarding RRIRRRPPRLPRPRPRPGEDPRP, the “shrunken log2 fold change” value was 0.00579. Then RRIRQRPPRLPRPRPRPMQLPRP, with -0.15; and RRIRVRPPRLPRPRPRPETDPRP, with 0.023.

On to RRIRNRPPRLPRPRPRPENIPRP, for which the “shrunken log2 fold change” value is -0.435. Take RRIRHRPPRLPRPRPRPCEQPRP: the “shrunken log2 fold change” value is -0.0166.

As to RRIRLRPPRLPRPRPRPCVPPRP, the “shrunken log2 fold change” value was -0.208. On to RRIRFRPPRLPRPRPRPMRMPRP, for which the “shrunken log2 fold change” value is -0.0248. Then RRIRIRPPRLPRPRPRPHGAPRP, with -0.0865; and RRIRDRPPRLPRPRPRPSQKPRP, with -0.0691; and RRIRSRPPRLPRPRPRPAQEPRP, with 0.0123. Then RRIRNRPPRLPRPRPRPRFNPRP, with -0.766. For the sequence RRIRIRPPRLPRPRPRPRKGPRP, the “shrunken log2 fold change” value was determined as 0.05. As for RRIRKRPPRLPRPRPRPVWRPRP, the “shrunken log2 fold change” value was determined as 0.0611. Then RRIRERPPRLPRPRPRPTKEPRP, with -0.465.

Regarding RRIRVRPPRLPRPRPRPYWQPRP, the “shrunken log2 fold change” value was -0.0663. For the sequence RRIRHRPPRLPRPRPRPMRNPRP, the “shrunken log2 fold change” value stood at 0.435. For the sequence RRIRYRPPRLPRPRPRPSCQPRP, the “shrunken log2 fold change” value is -0.296. With RRIRTRPPRLPRPRPRPMVYPRP, the “shrunken log2 fold change” value was -0.09. With RRIRHRPPRLPRPRPRPAKFPRP the figure was -0.139.

Turning to RRIRYRPPRLPRPRPRPGSFPRP, the “shrunken log2 fold change” value was -0.0331. For RRIRLRPPRLPRPRPRPVARPRP, the “shrunken log2 fold change” value was found to be 0.551. As to RRIRSRPPRLPRPRPRPPASPRP, the “shrunken log2 fold change” value was 0.694. Take RRIRPRPPRLPRPRPRPNNRPRP: the “shrunken log2 fold change” value was -0.349. Then RRIRNRPPRLPRPRPRPTCGPRP, with 0.073. For the sequence RRIRKRPPRLPRPRPRPVFTPRP, the “shrunken log2 fold change” value is -0.0937.

For RRIRMRPPRLPRPRPRPNHRPRP, the “shrunken log2 fold change” value is -0.113. RRIRKRPPRLPRPRPRPVPSPRP: the “shrunken log2 fold change” value is -0.156. On to RRIRTRPPRLPRPRPRPNFTPRP, for which the “shrunken log2 fold change” value is -0.0395.

In the case of RRIRVRPPRLPRPRPRPYMNPRP, the “shrunken log2 fold change” value was -0.962.

For RRIRMRPPRLPRPRPRPGEEPRP, the “shrunken log2 fold change” value came to 3.02. For the sequence RRIRERPPRLPRPRPRPDMIPRP, the “shrunken log2 fold change” value turned out to be 0.0157. With RRIRWRPPRLPRPRPRPIMRPRP the figure was 0.0401. On to RRIRNRPPRLPRPRPRPTPGPRP, for which the “shrunken log2 fold change” value was determined as 0.312.

RRIRVRPPRLPRPRPRPQMHPRP: the “shrunken log2 fold change” value is -0.175. For RRIRTRPPRLPRPRPRPNAYPRP, the “shrunken log2 fold change” value was -0.195.

Turning to RRIRKRPPRLPRPRPRPLASPRP, the “shrunken log2 fold change” value was found to be 0.0708. RRIRYRPPRLPRPRPRPYIGPRP: the “shrunken log2 fold change” value was -0.0919. With RRIRTRPPRLPRPRPRPFKMPRP, the “shrunken log2 fold change” value is -0.184. Regarding RRIRMRPPRLPRPRPRPFKTPRP, the “shrunken log2 fold change” value was -0.117. Take RRIRQRPPRLPRPRPRPITYPRP: the “shrunken log2 fold change” value is -0.402. For the sequence RRIRYRPPRLPRPRPRPEEPPRP, the “shrunken log2 fold change” value came out at 0.115.

On to RRIRWRPPRLPRPRPRPPCKPRP, for which the “shrunken log2 fold change” value is -0.0735. For RRIRKRPPRLPRPRPRPLSWPRP, the “shrunken log2 fold change” value stood at 0.826. As for RRIRIRPPRLPRPRPRPVLQPRP, the “shrunken log2 fold change” value turned out to be 0.103. For RRIRGRPPRLPRPRPRPRINPRP, the “shrunken log2 fold change” value was -0.122.

As to RRIRNRPPRLPRPRPRPWDVPRP, the “shrunken log2 fold change” value was -0.0115. In the case of RRIRTRPPRLPRPRPRPHMMPRP, the “shrunken log2 fold change” value is -0.586.

For RRIRTRPPRLPRPRPRPAICPRP, the “shrunken log2 fold change” value was -0.552. On to RRIRGRPPRLPRPRPRPNYPPRP, for which the “shrunken log2 fold change” value came to 0.0611. Then RRIRNRPPRLPRPRPRPVDYPRP, with -0.0368. Consider RRIRKRPPRLPRPRPRPAIWPRP, for which the “shrunken log2 fold change” value worked out at 0.463. On to RRIRIRPPRLPRPRPRPMKNPRP, for which the “shrunken log2 fold change” value is -0.359.

As for RRIRLRPPRLPRPRPRPPCPPRP, the “shrunken log2 fold change” value came to 0.316. RRIRLRPPRLPRPRPRPEDPPRP: the “shrunken log2 fold change” value was 0.0223.

As for RRIRYRPPRLPRPRPRPLQWPRP, the “shrunken log2 fold change” value was -0.0328. On to RRIRPRPPRLPRPRPRPWGKPRP, for which the “shrunken log2 fold change” value is 0.248.
